Data as given in patent publication US20200199241A1 (Chugai, published 2020).
Residue numbers refer to the chain shown, from its start. Names may count otherwise. Like-named read-outs stand apart in the source and are kept apart here.

What was measured:
[1] = target: T1, human FcRn (soluble human FcRn complexed with β2-microglobulin) (human, UniProt P61769 21-119, limits assumed); assay: SPR, antibody captured by Protein L, human FcRn as analyte, pH 7.0, 25 C
T1 construct: also called hFcRn

[2] = target: T1, human FcRn (soluble human FcRn …); assay: as above; remark: listed apart in the source
mouse FcγRIIb [3] = target: T2, mouse FcγRIIb (mouse, UniProt P08101 30-207, limits assumed); assay: SPR, antibody captured by Protein L, mouse FcγR as analyte, pH 7.4, 25 C
T2 construct: bought; also called mFcgRIIb; mFcgR IIb
T2 sequence (looked up): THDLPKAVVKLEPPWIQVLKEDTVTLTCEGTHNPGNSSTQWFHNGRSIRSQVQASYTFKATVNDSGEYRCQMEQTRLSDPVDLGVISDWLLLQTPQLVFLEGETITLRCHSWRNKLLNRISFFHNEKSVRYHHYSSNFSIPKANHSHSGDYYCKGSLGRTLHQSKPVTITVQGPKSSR

mouse FcγRI [4] = target: T3, mouse FcγRI (mouse, UniProt P26151 25-297); assay: as above
T3 construct: bought; also called mFcgRI; mFcgR 1
T3 sequence (looked up): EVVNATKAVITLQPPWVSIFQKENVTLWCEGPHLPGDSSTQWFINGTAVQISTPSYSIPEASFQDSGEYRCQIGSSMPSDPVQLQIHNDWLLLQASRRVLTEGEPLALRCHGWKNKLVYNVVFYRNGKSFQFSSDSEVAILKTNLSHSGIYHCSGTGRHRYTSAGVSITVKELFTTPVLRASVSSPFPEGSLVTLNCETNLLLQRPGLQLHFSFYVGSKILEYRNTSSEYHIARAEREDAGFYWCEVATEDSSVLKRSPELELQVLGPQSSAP

mouse FcγRIII [5] = target: T4, mouse FcγRIII (mouse, UniProt P08508 31-215); assay: as above
T4 construct: bought; also called mFcgRIII; mFcgR III
T4 sequence (looked up): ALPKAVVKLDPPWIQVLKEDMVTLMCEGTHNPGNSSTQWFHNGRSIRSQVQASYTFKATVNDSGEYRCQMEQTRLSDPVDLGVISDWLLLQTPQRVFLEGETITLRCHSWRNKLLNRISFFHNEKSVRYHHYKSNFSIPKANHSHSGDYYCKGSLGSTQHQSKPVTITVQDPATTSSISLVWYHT

mouse FcγRIV [6] = target: T5, mouse FcγRIV (mouse, UniProt A0A0B4J1G0 21-203); assay: as above
T5 construct: bought; also called mFcgRIV; mFcgR IV; the vendor's purification tag not given
T5 sequence: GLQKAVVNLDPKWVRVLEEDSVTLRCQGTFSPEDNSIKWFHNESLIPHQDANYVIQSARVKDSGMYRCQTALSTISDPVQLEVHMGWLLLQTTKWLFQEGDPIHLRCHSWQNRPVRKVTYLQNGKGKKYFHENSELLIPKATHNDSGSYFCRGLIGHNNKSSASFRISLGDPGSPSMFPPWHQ

[7] = target: T1, human FcRn (soluble human FcRn …); assay: SPR, antibody captured by Protein L, human FcRn as analyte, pH 7.0, 25 C; remark: listed apart in the source
mouse FcγRIIb [8] = target: T2, mouse FcγRIIb; assay: SPR, antibody captured by Protein L, mouse FcγR as analyte, pH 7.4, 25 C; set-up: unit not given here
mouse FcγRI [9] = target: T3, mouse FcγRI; assay: as above; set-up: unit not given here
mouse FcγRIII [10] = target: T4, mouse FcγRIII; assay: as above; set-up: unit not given here
mouse FcγRIV [11] = target: T5, mouse FcγRIV; assay: as above; set-up: unit not given here
human FcγRIIa(R) = target: T6, human FcγRIIa(R) (human, UniProt P12318 36-217); assay: SPR, antibody captured by Protein L, human FcγR as analyte, pH 7.4, 25 C;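 note: biacore T100 or T200 with Protein L amine-coupled on a CM4 chip, FcγRs diluted in ACES saline with polysorbate 20, buffer-only injection as blank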
T6 construct: also called hFcgRIIa(R); FcγRIIa type R
T6 chain: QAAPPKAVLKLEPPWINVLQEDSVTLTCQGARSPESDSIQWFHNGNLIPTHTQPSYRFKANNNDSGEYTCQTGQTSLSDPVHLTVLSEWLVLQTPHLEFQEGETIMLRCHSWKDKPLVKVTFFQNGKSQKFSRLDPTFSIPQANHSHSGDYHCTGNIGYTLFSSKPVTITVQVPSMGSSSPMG

human FcγRIIb = target: T7, human FcγRIIb (human, UniProt P31994 43-217, limits assumed); assay: as above
T7 construct: also called hFcgRIIb; FcγIIB
T7 sequence: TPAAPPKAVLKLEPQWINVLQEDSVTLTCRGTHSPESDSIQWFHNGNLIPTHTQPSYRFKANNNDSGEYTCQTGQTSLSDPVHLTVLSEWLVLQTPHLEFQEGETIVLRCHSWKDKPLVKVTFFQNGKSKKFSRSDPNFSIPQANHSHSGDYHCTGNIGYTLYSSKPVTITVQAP

human FcγRIIa(H) = target: T8, human FcγRIIa(H) (human, UniProt P12318 36-217); assay: as above
T8 construct: also called hFcgRIIa(H); FcγRIIa type H
T8 sequence: T6 chain with R133H

human FcγRIa = target: T9, human FcγRIa (human, UniProt P12314 16-292, limits assumed); assay: as above
T9 construct: also called hFcgRIa; hFcgRI

human FcγRIIIa(V) = target: T10, human FcγRIIIa(V) (human, UniProt P08637 17-208, limits assumed); assay: as above
T10 construct: also called hFcgRIIIa(V); allotype V158
T10 sequence (P08637 other isoform, or with tags, fused parts or gaps limits assumed): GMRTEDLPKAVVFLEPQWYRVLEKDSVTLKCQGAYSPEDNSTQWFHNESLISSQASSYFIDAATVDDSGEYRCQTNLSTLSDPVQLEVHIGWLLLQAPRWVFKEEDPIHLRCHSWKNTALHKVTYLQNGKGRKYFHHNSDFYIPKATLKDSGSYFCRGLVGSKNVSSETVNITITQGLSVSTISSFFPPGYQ

T1 sequence (chain, as listed by the source limits assumed, chain 1 of 2): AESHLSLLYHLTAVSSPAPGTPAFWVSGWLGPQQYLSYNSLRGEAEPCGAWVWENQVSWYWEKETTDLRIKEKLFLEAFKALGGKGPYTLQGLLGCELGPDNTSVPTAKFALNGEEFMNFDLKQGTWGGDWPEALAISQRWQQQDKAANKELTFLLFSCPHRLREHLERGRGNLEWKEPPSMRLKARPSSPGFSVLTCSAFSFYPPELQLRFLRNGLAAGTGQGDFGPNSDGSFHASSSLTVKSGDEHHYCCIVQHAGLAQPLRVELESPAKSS
T1 sequence (P61769 21-119 limits assumed, chain 2 of 2): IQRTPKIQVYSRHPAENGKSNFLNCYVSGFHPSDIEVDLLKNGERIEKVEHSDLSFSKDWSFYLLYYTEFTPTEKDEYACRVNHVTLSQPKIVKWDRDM
T9 sequence (P12314 16-292 limits assumed): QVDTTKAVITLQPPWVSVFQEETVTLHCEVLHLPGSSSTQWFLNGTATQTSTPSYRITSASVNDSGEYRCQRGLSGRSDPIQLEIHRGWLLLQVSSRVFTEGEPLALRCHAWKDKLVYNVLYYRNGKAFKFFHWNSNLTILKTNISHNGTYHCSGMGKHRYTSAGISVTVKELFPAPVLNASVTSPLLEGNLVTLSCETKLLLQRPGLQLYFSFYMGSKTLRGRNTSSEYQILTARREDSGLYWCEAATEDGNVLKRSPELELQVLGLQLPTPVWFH

B1: antibody with VH3-IgG1-F947 heavy chain and L(WT)-CK light chain (antibody)
heavy: QVQLQESGPGLVKPSETLSLTCAVSGHSISHDHAWSWVRQPPGEGLEWIGFISYSGITNYNPSLQGRVTISRDNSKNTLYLQMNSLRAEDTAVYYCARSLARTTAMDYWGEGTLVTVSSASTKGPSVFPLAPSSKSTSGGTAALGCLVKDYFPEPVTVSWNSGALTSGVHTFPAVLQSSGLYSLSSVVTVPSSSLGTQTYICNVNHKPSNTKVDKKVEPKSCDKTHTCPPCPAPELLGGPSVFLFPPKPKDVLYISRTPEVTCVVVDVSHEDPEVKFNWYVDGVEVHNAKTKPREEQYNSTYRVVSVLQPLHADWLNGKEYKCKVSNKALPAPIEKTISKAKGQPREPQVYTLPPSRDELTKNQVSLTCLVKGFYPSDIAVEWESNGQPENNYKTTPPVLDSDGSFFLYSKLTVDKSRWQQGNVFSCSVMHEALHYHVTQKSLSLSP
light: not shown
notes: T250V/M252Y/T307Q/V308P/Q311A/N434Y/Y436V; copies: 2 + 2
For B1, which Kd [1] is on record?
The Kd was 11 nM.

What about the Kd [2] of the same binder?
The Kd was 11 nM.

What about the “BINDING AMOUNT (RU)” value (mouse FcγRIIb [3]) of the same binder?
The value was 117 RU.

And the “BINDING AMOUNT (RU)” value (mouse FcγRI [4])?
Its value is 299 RU.

What about the “BINDING AMOUNT (RU)” value (mouse FcγRIII [5]) of the same binder?
The value was 382 RU.

What about the “BINDING AMOUNT (RU)” value (mouse FcγRIV [6]) of the same binder?
Its value is 242 RU.

What about the Kd [7] of the same binder?
Its Kd is 11 nM.

And the “binding amount” value (mouse FcγRIIb [8])?
The value was 129.

What about the “binding amount” value (mouse FcγRI [9]) of the same binder?
The value was 329.

What about the “binding amount” value (mouse FcγRIII [10]) of the same binder?
Its value is 664.

What about the “binding amount” value (mouse FcγRIV [11]) of the same binder?
The value was 279.

What about the “BINDING AMOUNT (RU)” value (human FcγRIIa(R)) of the same binder?
Its value is 148 RU.

What about the “BINDING AMOUNT (RU)” value (human FcγRIIb) of the same binder?
Its value is 70.6 RU.

What about the “BINDING AMOUNT (RU)” value (human FcγRIIa(H)) of the same binder?
Its value is 154 RU.

What about the “BINDING AMOUNT (RU)” value (human FcγRIa) of the same binder?
Its value is 368 RU.

What about the “BINDING AMOUNT (RU)” value (human FcγRIIIa(V)) of the same binder?
The value was 221 RU.
